# Measured values reported in the nanobody polyreactivity screen of Harvey et al. (2022).
# Assay: yeast display, Sf9 membrane polyspecificity reagent, FACS + sequencing; frameworks hold sequencing errors
# Method in brief: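 Sorting gates, low and high (top ~1%), were placed on anti-HA fluorescence to track expression and on streptavidin fluorescence to track reagent binding. A clone's polyreactivity label is taken from the gate it came out of. The reagent was 10% biotinylated, detergent-solubilized Sf9 membrane, applied for 1 hour at 4 °C to galactose-induced yeast display cells.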
row,Sequence,polyreactivity (PSR sort gate)
1,QVQLVESGGGLVQAGVSLRLSCAASGFIYDHNAMGWYRQAPGKERELVAAITRSGGSTYYAYSVKGRFTISRDNAKNTVYLQMNSLKQEDTAVYYCNADAYGTPEFTSYAVRYDYWGQGTQVTVSS,low polyreactivity
2,QVQLVESGGGLVQAGVSLRLSCAASGFTFSRNAMGWYRQAPGKERELVAAISRSGGSTYYAYSVKGRFTISRDNAKNTVYLQINSLKQEDTAVYYCATSCTPNYFVTSDYWGQGTQVTVSS,high polyreactivity
3,QVQLVESGGGLVQAGVSLRLSCAASGRIFGPYAMGWYRQAPGKERELVAAITWRGDRTYYADSVKGRFTISRDNAKNTVYLQMNSLKPEDTAVYYCAARGGRSEYDYWGLGTQVTVSS,low polyreactivity
4,QVQLVESGGGLVQAGVSLRLSCAASGRIFYPYVMGWYRQAPGKERELVAAISDSTGSTYYADSVKGRFTISRDNAKNTVYLQMNSLKPEDTAVYYCAAGWFYATYWRFYYWGQGTQVTVSS,low polyreactivity
5,QVQLVESGGGLVQAGVSLRLSCAASGRLFYRYAMGWYRQAPGKERELVAGISRGGSTNYADSVKGRFTISRDNAKNTVYLLMKSLKPEDSAVYYCAADAKRTLSYEFGYWGQGTQVTVSS,high polyreactivity
6,QVQLVESGGGLVQAGVSLRLSCAASGRTFEDKAMGSDRQAPGKERELVAAISSDGSTNYADSVKGRFTISRDNAKYTVYLQKYSLKPVDTAVYYCNSTVYWPYDWSTSDYWGQGTQVTVSS,low polyreactivity
7,QVQLVESGGGLVQAGVSLRLSCAASGRTFGHYTMGWYRQAPGKERELVARISRTGSTKYADSVKGPFTISRDNAKNTVYLQMNSLKPEDTAVYYCARVQAGGYGERVYAYHYDYWGQGTQVTVSS,high polyreactivity
8,QVQLVESGGGLVQAGVSLRLSCAASGRTFSYYVMGWYRQAPGKETELVAAITTRTSSTYYADSVKGRFTISRDNAKNTVYLQMNSLKPEDTAVYYCARRPRARAYNYWGQGTQVTVSS,high polyreactivity
9,QVQLVESGGGLVQAGVSLRLSCAASGRTFVSNAMGWYRQAPGKEREFVAAIRDSGGRTYYADSVKGRFTISRDNANNTVYLQMTSLIPEDTAVYYCATRGVSPSRPGYYWGQGTQVTVSS,high polyreactivity
10,QVQLVESGGGLVQAGVSLRLSCAASGRTLRRTAMGWYRQAPGTERELVAAISSIGGSTYYADSVKGRFTISRDNAKITVYLQMNSLKPEDTAVYYCAADILIYPYSYDYYWGQGTQVTVSS,high polyreactivity
11,QVQLVESGGGLVQAGVSLRLSCAASGSIFGRYAMGWYRQAPGKERELVAAINDDSGRTYYADSVKGRFTISRDNAKNTVYLQKNSLKPEDTAVYYCATGRQSEYDYWGQGTQVTVSS,high polyreactivity
12,QVQLVESGGGLVQAGVSLRLSCAASGSIFRHNAMGWYRQAPGKERELVAAINWSGGRTYYADSVKGRFTISRDNAKNTVYLHMNSLKPEDTAVYYCADPVPRSWYDYWGQGTQVTVSS,high polyreactivity
13,QVQLVESGGGLVQAGVSLRLSCAASGSIFYAYAMGWYRQAPGKERELVAVINSGGSTYYADSVKGRFRISSEYAKNTVYLQMNSLKPEDTAVYYCNGTQYRGKYDYPPPGRGYYYWGQGTHVTVSS,high polyreactivity
14,QVQLVESGGGLVQAGVSLRLSCAASGSIIWVYAMGWYRQAPGNERELVAAITSGVSTYYADSVKGRFTISRDNAKNTVYFQMNSLKPEETAVYYCAVVGGFRWIRMEYWGQGTQVTVSS,low polyreactivity
15,QVQLVESGGGLVQAGVSLRLSCAASGSILTINAMGLYRQAPGKERELVPAITSGGGSTYYADSVKGRFTISRDNAKNTVYLQMNSLKPEDTAVYYCNKVFVLPYKFVAWFDYWGQGTQVTVSS,low polyreactivity
16,QVQLVESGGGLVQAGVSLRLSCAASGSTFGRYTMGWYRQAPGKERELVAVITRGGDSTYYADSVKWRFTISRDNAKNTVYLQMNSLKPEDTAVYYCNAETNDWYYQAYLEVEYWGQGTQETVSS,low polyreactivity
17,QVQLVESGGGLVQAGVSLRLSCAASGSTFGWYAMGWYRQAPGKERELVAAISASGGSTYYADSVKGRFTISRDNAKNNVYLQMNSLKPEDTAVYYCAVRAWKFLTRYDYWGQGTKVTVSS,high polyreactivity
18,QVQLVESGGGLVQAGVSLRLSCAASGSTFTGTAMGWYIQAPGKERELVASINGSSGSTYYADSVKGRFTISRDNAKNTVYLQMNSLKPEDTAVYYCAKDSFLHFPRVGWVGLEYWGQGTQVTLSS,low polyreactivity
19,QVQLVESGGGLVQAGVSLRLSCAASGSTFTYNAKGWYRQEPGKEMELVAAIRSNGGSTYADSVKGRFTISRDNAKNTVYFQMNSMKPEDTAVYYCAARWRDYYRWGSRGGYGYWGQGTQVTVSS,high polyreactivity
20,QVQLVESGGGLVQAGVSLRLSCAASGSTFYDIAMGWYRQATGKDRELVAAISYSGASTYYADSVKGRFTISRDNAKNTVYLHINSLKPEDTAVYYCAKTFYTLYWGQGTKVTVSS,low polyreactivity
21,QVQLVESGGGLVQAGVSLRLSCAASGSTLYGYAMGWYRQAPGKERELVAAINTGGSTNYADSVKGRFTISRDNSKNTVYLQMNSLKPEDTAVYYCAASYSLTFWDKDDYWGQGTQVTVSS,low polyreactivity
22,QVQLVESGGGLVQAGVSLRLSCAASGYIIIVYTMGWYRQAPGKERELVAAISSGGITDYADSVKGRFTISRDNAKNTVYLQMNSLKPEDTAVYYWGQGTQVTVSS,low polyreactivity

row,Sequence,polyreactivity (PSR sort gate)
1,QVQLVESGGGLVQAGVSLRLSCAAYGRIFGPYAMGWYRQAPGKERELVATITWRTGSTYYADSVKGRFTISRDNAKNTVYLQMNSLKPEDTAVYYCAARYGRYSKAGDYWGLGTQVTVSS,high polyreactivity
2,QVQLVESGGGLVQAGVSLRLSCVPPDLPSTLNVMGWYRQAPGKERELVAAITSSGGSTRYADCVKGRFTISRDNAKNTVYLQMNSLKPEDTAVYYCAASRDKYGNRVRPFDYWGQGTQVTVSS,low polyreactivity
3,QVQLVESGGGLVQARGSLRLSCAASGFGWYAMGWYRQAPGKEREFVAAISRGGGSTYYADSVKGRFTISRDNAKNTVYLQMNSLKQEDTAVYYCAAVYYRRISQGDTQTYYQYNYWGQGTKVTVSS,high polyreactivity
4,QVQLVESGGGLVQARGSLRLSCAASGFIFSYYAMGWYRQAPGKERELVAAISSSGGTTYADSVKGRFTISRDNAKNTVYLQMNSLKPEDTAVYYCARVQYWFYKPMYYWGQGTQVTVSS,high polyreactivity
5,QVQLVESGGGLVQARGSLRLSCAASGFTFDQYTMGWYRQAPGKERELVAAISSSGGSTYYADSVKGRFTISRDNAKKTVYLQMNSLKPEDTAVYYCAARFLLTQRFSHDYWGQGTQVTVSS,low polyreactivity
6,QVQLVESGGGLVQARGSLRLSCAASGGNISYNAMGRYRQAPGKEREFVASISSSGGRTYYADSVKGRFTISRDNAKNTVYLQMNSLKPEDTAVFYCNADAQVEYGLFGQGWVTSFDYWGEGTQVTVSS,low polyreactivity
7,QVQLVESGGGLVQARGSLRLSCAASGIIFSTYAMGWYRQAPGKERELVAAISASGVRTYYADSVKGRFTISRDNAKNTVYLQMNSLKPEDTAVYYCAVRGYPYLRYYWGQGTQVTVSS,high polyreactivity
8,QVQLVESGGGLVQARGSLRLSCAASGIIFYSYAMGWYRQAPGKEREFVAAITNSDGSTYYADSVKGRFTISRDNAKNTVYLQMNSLKPEDTAVYMYYWGQGTQVTVSS,low polyreactivity
9,QVQLVESGGGLVQARGSLRLSCAASGLIFYGNAMGWYRQAPGKERELVAAISRRGGRTYYADSVKGRFTISRDNAKNTVYLQMNSLKPEDTAVYYCAKRYKSIPRYWSKEYDYWGQGTQVTVSS,high polyreactivity
10,QVQLVESGGGLVQARGSLRLSCAASGNIFYRYAMGWYRQATGKERELVAAISFSGGGTYYADSVKGRFTISRDNAKNTVYLQMNSLKPEDTAVYYCAAYRRGCYDYWGQGTQVTVSS,high polyreactivity
11,QVQLVESGGGLVQARGSLRLSCAASGRIFFRNAKGWYRQAPGKERELVAAITYSGGSTYYADSVKGRFTISRDNAKNTVYLQMNSLKPEDTAVYYCGAGYWFSYSRVTRYDYWGQGTQVTVSS,high polyreactivity
12,QVQLVESGGGLVQARGSLRLSCAASGRSFVINAMGWYRPAPGKERELVAGITSSGNTNYADSVKGRFTISRDNAKNTVYLQMNSLKPEDTAVYDCNAQVYLTWLTYWLYYPPNDYWGQGTQVTVSS,low polyreactivity
13,QVQLVESGGGLVQARGSLRLSCAASGRTFAIYAMGWYRPAPGKEREFVAAISWSGGDTYYADSVKGRFTISRDNAKNTVYLQMNSLKPEDTAVYYCAARDNDYEGRDLQYELDYWGQGSQVTVSS,low polyreactivity
14,QVQLVESGGGLVQARGSLRLSCAASGRTFVVYDMGWYRPAPGKERALVAAITWSGGSTYYADSVKGRFTSSRDTAKNTVYLQMHSLKPEDTAVYYCAAGYYYFWTYAYWGQGTQVTVSS,low polyreactivity
15,QVQLVESGGGLVQARGSLRLSCAASGRTVTYYAMGWYRQAPGKERELVAAISSGDSTYYADSVKGRFTISRDNAKNTVYLQMNSLKPEDTAVYYCAVDHVSRYYGYPEITYDYWGQGTQVSVSS,low polyreactivity
16,QVQLVESGGGLVQARGSLRLSCAASGSIFAQYAMGWYRQAPGKERELVAAITRSTGRTYYADSVKGRFTISRDNANNTVYLQMNSLKPEDTSVYYGNARQRQSKYYPYTTFTYDYWGQGTQVTVSS,high polyreactivity
17,QVQLVESGGGLVQARGSLRLSCAASGSIFDGNAMGWYRQAPGKERELVAAITWRGTRTYYADSVKGRFTISRDNAKNTVYLQMNSLKPEDTAVYYCNKKWYPYLEHDYWGQGTQGTVSS,high polyreactivity
18,QVQLVESGGGLVQARGSLRLSCAASGSIFRGYGMRRYIQAPGKERELVAAINYSGGSTYYADSVKGRFTISRDNAKNTVYLQMNSLKPEDTGVYYCNNDYYRQRGEYYYWGQGTQVTVSS,high polyreactivity
19,QVQLVESGGGLVQARGSLRLSCAASGSIFRKYAMGWYRQAPGKERELVAVITTDGSTNYADSVKGRFTISRDNAKNTVYLQMNSLKPEDTAVYYCNAVRSSIGTDNVYWGLGTQVTVSS,low polyreactivity
20,QVQLVESGGGLVQARGSLRLSCAASGSIFYPYAMGWYRQAPGKERELVAGISRSGASTYYADSVKGRFTISRDNAKNTVYLQMNSLKPEDTAVYYCAADDWTRNYWGQGTQVTVSS,low polyreactivity
21,QVQLVESGGGLVQARGSLRLSCAASGSTFIRYAMGWYRQAPGKERELVAAITWRGGSTYYADSVKGRFTISRDNAKNTVYLQMNSLKPEDTAVYYCAARDRDTRNYYWGQGTQGTVSS,high polyreactivity
